The RNAGym collection of RNA variant scans (doi:10.1073/pnas.2313332121)
Variants at the floor of the assay were thinned out.

B1: TPR 5TU (parent)
chain: GGAUCUUCUCGAUCUAACAAAAAAGACAAAUCUGCCACAAAGCUUGAGAGCAUCUUCGGAUGCAGAGGCGGCAGCCUUCGGUGGCGCGAUAGCGCCAACGUUCUCAACUAUGACACGCAAAACGCGUGCUCCGUUGAAUGGAGUUUAUCAUG

Variants of: B1
Assay: polymerase ribozyme fitness, log enrichment relative to wild type (log ratio); higher = more active; in vitro selection for triplet polymerase activity
Method in brief: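 Mutant libraries were PCR-built and transcribed for each subunit of a heterodimeric triplet polymerase ribozyme and selected for one round in triplicate at −7 °C, frozen, before gel excision of extended constructs and streptavidin-bead capture. Input and output libraries were Illumina-sequenced, keeping genotypes with ≥10 input reads and ≥1 read per output. Fitness is a logarithmic ratio of genotype to wild-type enrichment, in base 2, using inverse-variance-weighted replicate averages.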
For GGAUCUUCUCGAUCUAACAAAAAAGACAAAUCUGCCACAAAGCUUGAGAGCAUCUUCGGAUGCAGAGGCGGCAGCCUUCGGUGGCGCGGUAGCGGCAACGUUCUCAACUAUGACACGCAAAACGCGUGCUCUGUUGAAUGGAGUUUAUCAUG [A89G C95G C132U], the “polymerase ribozyme fitness (log ratio)” value was -3.36.
For GGAUCUUCUCGAUCUAACAAAAAAGACAAAUCUGCCACAAAGCUUGAGAGCAUCUUCGGAUGCAGAGGCGGCAGCCUUCGGUGGCGCGCUAGCGCCAACGUUCUUAACUAUGACACGCAAAACGCGUGCUCCGUUGAAUGGAGUUUAUCAUG [A89C C105U], the “polymerase ribozyme fitness (log ratio)” value was 0.174.
For GGAUCUUCUCGAUCUAACAAAAAAGACAAAUCUGCCACAAAGCUUGAGAGCAUCUUCGGAUGCAGAGGCGGCAGCCUUCGGUGGCGCGGUAGCGCCAACGUUCUCAACUAUGACACGCAAAACGUGUGCUCUGUUGAAUGGAGUUUAUCAUG [A89G C125U C132U], the “polymerase ribozyme fitness (log ratio)” value was -1.73.
For GGAUCUUCUCGAUCUAACAAAAAAGACAAAUCUGCCACAAAGCUUGAGAGCAUCUUCGGAUGCAGAGGCGGCAGCCUUCGGUGGCGCGCUAGCGCCAAUGUUCUCAACUAUGAUACGCAAAACGCGUGCUCCGUUGAAUGGAGUUUAUCAUG [A89C C99U C114U], the “polymerase ribozyme fitness (log ratio)” value was -2.63.
For GGAUCUUCUCGAUCUAACAAAAAAGACAAAUCUGCCACAAAGCUUGAGAGCAUCUUCGGAUGCAGAGGCGGCAGCCUUCGGUGGCGCGCUAGCGCCAACGUUCUCAACUAUGACACGCAAAACGCGUGCUCCGUUGAAUGGAGUUUACCAUG [A89C U148C], the “polymerase ribozyme fitness (log ratio)” value was -3.51.
In the case of GGAUCUUCUCGAUCUAACAAAAAAGACAAAUCUGCCACAAAGCUUGAGAGCAUCUUCGGAUGCAGAGGCGGCAGCCUUCGGUGGCGCGCUAGCCCCAACGUUCUCAACUAUGACACGCAAAACGCGUGCUCCGUUGAAUGGAGUUUAUCAUG [A89C G94C], the “polymerase ribozyme fitness (log ratio)” value is reported as -1.57.
In the case of GGAUCUUCUCGAUCUAACAAAAAAGACAAAUCUGCCACAAAGCUUGAGAGCAUCUUCGGAUGCAGAGGCGGCAGCCUUCGGUGGCGCGGUAGCGCCAACGUUCUCAACUAUGACACGCAAAACGCGUGCUCCGUUGAAUGGAGUUUAUCAUG [A89G], the “polymerase ribozyme fitness (log ratio)” value is reported as -0.999.
In the case of GGAUCUUCUCGAUCUAACAAAAAAGACAAAUCUGCCACAAAGCUUGAGAGCAUCUUCGGAUGCAGAGGCGGCAGCCUUCGGUGGCGCGCUAGCGCCAACGUUCUCAACUAUGACACGCAAAACGCGUGCACCGUUGAAUGGAGUUUAUCAUG [A89C U130A], the “polymerase ribozyme fitness (log ratio)” value is reported as -3.07.
With GGAUCUUCUCGAUCUAACAAAAAAGACAAAUCUGCCACAAAGCUUGAGAGCAUCUUCGGAUGCAGAGGCGGCAGCCUUCGGUGGCGCGGUAGCGCCAACGUUCUCAACUAUGACACGCAAACCGCGUGCUCCGUUGAAUGGAGUUUAUCAUG [A89G A122C] the “polymerase ribozyme fitness (log ratio)” value was -1.77.
With GGAUCUUCUCGAUCUAACAAAAAAGACAAAUCUGCCACAAAGCUUGAGAGCAUCUUCGGAUGCAGAGGCGGCAGCCUUCGGUGGCGCGGUAGCGCCAAGGUUCUCAACUAUGACAAGCAAAACGCGUGCUCCGUUGAAUGGAGUUUAUCAUG [A89G C99G C116A] the “polymerase ribozyme fitness (log ratio)” value was -1.92.
With GGAUCUUCUCGAUCUAACAAAAAAGACAAAUCUGCCACAAAGCUUGAGAGCAUCUUCGGAUGCAGAGGCGGCAGCCUUCGGUGGCGCGGUAGCGCCAACGUUCUCAACUAUGACACGCAAAACGAGUGCUCCGUUGAAUGGAGUUUAUCAUG [A89G C125A] the “polymerase ribozyme fitness (log ratio)” value was -1.77.
With GGAUCUUCUCGAUCUAACAAAAAAGACAAAUCUGCCACAAAGCUUGAGAGCAUCUUCGGAUGCAGAGGCGGCAGCCUUCGGUGGCGCGCUAGCGCCAACGUUAUCAACUAUGACACGCAAAACGCGUGCUCCGUUGAAUGGAGUUUAUCAUG [A89C C103A] the “polymerase ribozyme fitness (log ratio)” value was -2.11.
For GGAUCUUCUCGAUCUAACAAAAAAGACAAAUCUGCCACAAAGCUUGAGAGCAUCUUCGGAUGCAGAGGCGGCAGCCUUCGGUGGCGCGGUAGCGCCAUCGUUCUCAACUAUGACACGCAAAACGCGUGCUCCGUUGAAUGGAGUUUAUCAUG [A89G A98U], the “polymerase ribozyme fitness (log ratio)” value was -1.66.
In the case of GGAUCUUCUCGAUCUAACAAAAAAGACAAAUCUGCCACAAAGCUUGAGAGCAUCUUCGGAUGCAGAGGCGGCAGCCUUCGGUGGCGCGGUAGCGCCAGCGUUCUCAACUAUGACACGCAAAACGCGUGCUCCGUUGAAUGGACUUUAUCAUG [A89G A98G G143C], the “polymerase ribozyme fitness (log ratio)” value is reported as -3.66.
In the case of GGAUCUUCUCGAUCUAACAAAAAAGACAAAUCUGCCACAAAGCUUGAGAGCAUCUUCGGAUGCAGAGGCGGCAGCCUUCGGUGGCGCGCUAGCGCUAACGUUCUCAACUAUGACACGCAAAACGCGUGCUCCGUUGAAUGGAGUUUAUCAUG [A89C C96U], the “polymerase ribozyme fitness (log ratio)” value is reported as -1.26.
In the case of GGAUCUUCUCGAUCUAACAAAAAAGACAAAUCUGCCACAAAGCUUGAGAGCAUCUUCGGAUGCAGAGGCGGCAGCCUUCGGUGGCGCGCUAGCGCCAACGUUCUCAACUAUGACACGCAAAACGAGUGCUCCGUUGAAUGGAGUUUAUCAUG [A89C C125A], the “polymerase ribozyme fitness (log ratio)” value is reported as -1.13.
For GGAUCUUCUCGAUCUAACAAAAAAGACAAAUCUGCCACAAAGCUUGAGAGCAUCUUCGGAUGCAGAGGCGGCAGCCUUCGGUGGCGCGCUAGCGCCAACGUUCUCAACUAUGACACGCAAAAAGCGUUCUCCGUUGAAUGGAGUUUAUCAUG [A89C C123A G128U], the “polymerase ribozyme fitness (log ratio)” value was -3.31.
In the case of GGAUCUUCUCGAUCUAACAAAAAAGACAAAUCUGCCACAAAGCUUGAGAGCAUCUUCGGAUGCAGAGGCGGCAGCCUUCGGUGGCGCGCUAGCGCUCAUGUUCUCAACUAUGACACGCAAAACGCGUGCUCCGUUGAAUGGAGUUUAUCAUG [A89C C96U A97C C99U], the “polymerase ribozyme fitness (log ratio)” value is reported as -3.09.
In the case of GGAUCUUCUCGAUCUAACAAAAAAGACAAAUCUGCCACAAAGCUUGAGAGCAUCUUCGGAUGCAGAGGCGGCAGCCUUCGGUGGCGCGGUAGCGCCAAGGUACUCAACUAUGACACGCAAAAGGCGUGCUCCGUCGAAUGGAGUGUAUCAUG [A89G C99G U102A C123G U135C U145G], the “polymerase ribozyme fitness (log ratio)” value is reported as ≤ -4.2.
